Earlier results on one molecule are cited in patent US9737089B2, “Milk-based nutritional compositions containing lactoferrin and uses thereof” (Mead Johnson Nutrition Company, priority 2012, dated 2017).

The data set deals with EPEC adhesion to HeLa cells. The following applies: Nascimento de Arujao et al., BMC Microbiol. 1:25 (2001).

B1: human lactoferrin: iron-binding glycoprotein, one of the major multifunctional agents present in human milk (protein, UniProt P02788 20-710, looked up)
Lactotransferrin: GRRRSVQWCAVSQPEATKCFQWQRNMRKVRGPPVSCIKRDSPIQCIQAIAENRADAVTLDGGFIYEAGLAPYKLRPVAAEVYGTERQPRTHYYAVAVVKKGGSFQLNELQGLKSCHTGLRRTAGWNVPIGTLRPFLNWTGPPEPIEAAVARFFSASCVPGADKGQFPNLCRLCAGTGENKCAFSSQEPYFSYSGAFKCLRDGAGDVAFIRESTVFEDLSDEAERDEYELLCPDNTRKPVDKFKDCHLARVPSHAVVARSVNGKEDAIWNLLRQAQEKFGKDKSPKFQLFGSPSGQKDLLFKDSAIGFSRVPPRIDSGLYLGSGYFTAIQNLRKSEEEVAARRARVVWCAVGEQELRKCNQWSGLSEGSVTCSSASTTEDCIALVLKGEADAMSLDGGYVYTAGKCGLVPVLAENYKSQQSSDPDPNCVDRPVEGYLAVAVVRRSDTSLTWNSVKGKKSCHTAVDRTAGWNIPMGLLFNQTGSCKFDEYFSQSCAPGSDPRSNLCALCIGDEQGENKCVPNSNERYYGYTGAFRCLAENAGDVAFVKDVTVLQNTDGNNNEAWAKDLKLADFALLCLDGKRKPVTEARSCHLAMAPNHAVVSRMDKVERLKQVLLHQQAKFGRNGSDCPDKFCLFQSETKNLLFNDNTECLARLHGKTTYEKYLGPQYVAGITNLKKCSTSPLLEACEFLRK
As to B1, the “inhibition of adhesion of EPEC to HeLa cells” value is reported as “can inhibit the adhesion”.
